Measured values from publication PMC6445123 (Scientific Reports, 2019).
Numbering of substitutions follows the chain as printed. In names and notes the source's numbering stands. Marks after values point to notes of the source that are not given here.

T1: recombinant active Casp6 (Casp6-WT) (Homo sapiens, UniProt P55212, INS179NQTEKLDTNITEVD)
T1 construct: generating mainly large subunit with a linker (LS-L), small subunit (SS), and a minor amount of large subunit (LS); His (C); made in house; host or cells: E. coli BL21(DE3)pLysS
T1 sequence (P55212 24-193 limits assumed): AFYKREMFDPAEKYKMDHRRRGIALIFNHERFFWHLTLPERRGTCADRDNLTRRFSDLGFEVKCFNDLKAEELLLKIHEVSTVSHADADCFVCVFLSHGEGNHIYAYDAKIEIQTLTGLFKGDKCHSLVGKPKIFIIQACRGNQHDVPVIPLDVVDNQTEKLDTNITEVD
T1 sequence (P55212 194-293 limits assumed): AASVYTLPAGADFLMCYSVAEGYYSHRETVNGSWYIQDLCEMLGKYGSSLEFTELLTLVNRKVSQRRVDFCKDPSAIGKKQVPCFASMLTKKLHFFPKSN

B1: Casp6-E35K: recombinant rare natural human Casp6 missense variant E35K (protein)
chain 1: T1 sequence (P55212 24-193 limits assumed) with E12K
chain 2: T1 sequence (P55212 194-293 limits assumed)
modifications: left off: His (from the plasmid name pET23b-Casp6-His), end not stated, state not stated
B2: Casp6-L200A: Casp6 L200A alanine mutant from full-length construct, poorly self-processed (protein, UniProt P55212 1-293, looked up, variant L200A)
chain: MSSASGLRRGHPAGGEENMTETDAFYKREMFDPAEKYKMDHRRRGIALIFNHERFFWHLTLPERRGTCADRDNLTRRFSDLGFEVKCFNDLKAEELLLKIHEVSTVSHADADCFVCVFLSHGEGNHIYAYDAKIEIQTLTGLFKGDKCHSLVGKPKIFIIQACRGNQHDVPVIPLDVVDNQTEKLDTNITEVDAASVYTAPAGADFLMCYSVAEGYYSHRETVNGSWYIQDLCEMLGKYGSSLEFTELLTLVNRKVSQRRVDFCKDPSAIGKKQVPCFASMLTKKLHFFPKSN
modifications: full-length
notes: Casp6 L200A alanine mutant from full-length construct, poorly self-processed
B3: Casp6-L200A-LS-SS: fully processed Casp6 L200A from co-expression of large and small subunits (protein, UniProt P55212 1-293, looked up, variant L200A)
chain: B2 chain
B4: Casp6-K284A-LS-SS: fully processed Casp6 K284A from co-expression of large and small subunits (protein, UniProt P55212 1-293, looked up, variant K284A)
chain: B2 chain with A200L, K284A
B5: Casp6-WT: recombinant wild-type human Casp6 expressed in E. coli from full-length construct (protein, UniProt P55212 1-293, looked up)
chain: B2 chain with A200L
modifications: full-length
notes: recombinant wild-type human Casp6 expressed in E. coli from full-length construct

Key:
[1] = target: T1, recombinant active Casp6 (Casp6-WT); test: Fluorescence-based Ac-VEID-AFC cleavage assay (Casp6 activity, IC50 determination); assay type: biochemical; conditions: for % Inhibition with 100 µM compound (fluorescence assay) / IC50: 10 µM Ac-VEID-AFC; for % Inhibition with 100 µM compound (fluorescence assay): 20 nM Casp6, relative to 1% DMSO control; for fold increase in IC50 (reduction in potency) compared to C13: Casp6-WT; for IC50: fluorescence assay, 20 nM Casp6 active sites, read-out: IC50
Method: To assess the potency of in silico hits, a fluorescence-based Ac-VEID-AFC cleavage assay was used to measure recombinant active Casp6 reaction rate in the absence or presence of 100 µM concentration of compounds. A 30% inhibition cut off was arbitrarily chosen for further investigation of putative inhibitors. […] AFC signal interference by compound intrinsic fluorescence was ruled out (Fig. S4). Casp6 inhibition was confirmed for seven compounds (C7, C13, C14, S2, S10, S11 and S13) using a colorimetric Ac-VEID-pNA cleavage assay (Table 2, Fig. S3).
(§1) Casp6 active sites were quantified using zVAD-FMK (N-benzyloxycarbonyl-Val-Ala-Asp-(O-methyl)-fluoromethylketone, MP Biomedicals, Santa Ana, CA, USA)[51],[64]. Casp6 activity was measured in Stennicke’s buffer (SB: 20 mM piperazine-N,N′-bis-(2-ethanesulfonic acid) pH 7.2, 100 mM NaCl, 10 mM DTT, 1 mM EDTA, 0.1% 3-[(3-cholamidopropyl)-dimethylammonio]-2-hydroxy-1-propanesulfonic acid, 10% sucrose)[65] using 40 µM Ac-VEID-AFC (Ac-Val-Glu-Ile-Asp-7-Amino-4-trifluoromethylcoumarin, Enzo Life Sciences, Farmingdale, NY, USA)[64] and 10-250 nM active site titrated Casp6. Reactions were initiated by Ac-VEID-AFC addition and followed for 20 min at 37 °C in a black clear bottom 96-well microplate (Costar, Corning, NY, USA) in Synergy H4 Hybrid instrument (BioTek, Winooski, VT, USA) with excitation/emission at 380/505 nm. Released AFC was calculated from AFC standard curve (0-25 µM). Casp6 VEIDase activity (released pmol AFC/min) was calculated from the initial linear reaction part. Ac-VEID-AFC hydrolysis initial velocities were measured with 10 nM active-site titrated Casp6 and […] Ac-VEID-AFC. Initial velocities v versus substrate concentration [S] were fit to a rectangular hyperbola using Michaelis-Menten equation in GraphPad Prism 5 (GraphPad Software, La Jolla, CA, USA).
In fluorescence-based Casp6 activity assay, 10 µM Ac-VEID-AFC was added to 20 nM Casp6 in SB with 100 μM compound and 1% dimethyl sulfoxide (DMSO), and reaction rate was measured for 20 min at 37 °C as above. Compound potency was calculated by normalising Ac-VEID-AFC cleavage rate to 1% DMSO control. In colorimetric Casp6 activity assay, 200 µM Ac-VEID-pNA (N-acetyl-Val-Glu-Ile-Asp-p-nitroanilide, Enzo Life Sciences) was added to 200 nM Casp6 in SB with 100 μM compound, and Ac-VEID-pNA cleavage rate was measured at 37 °C for 30 min in clear 96-well plate (Sartstedt, Nümbrecht, Germany) using Synergy H4 plate reader at 405 nm. Absorbance was converted to the released pNA amount based on a standard curve of 0–250 µM pNA. Cleavage rates were calculated from the linear assay phase and were normalised to 1% DMSO control. In Casp6-C163A cleavage assay, 0.5 ng/µl Casp6-WT was preincubated with 100 µM inhibitor, 5 µM Q-VD-OPh or 1% DMSO in SB (30 min, RT), followed by transfer on ice, addition of 0.5 µg/µl Casp6-C163A, and incubation (37 °C, 5, 10 and 15 min). Reactions were stopped by adding SDS-PAGE sample buffer (62.5 mM Tris pH 6.8, 2% SDS, 0.1 M DTT, 0.01% Bromphenol Blue, 10% glycerol) and heating (5 min, 95 °C). Samples (2 µl) were analysed on 15% SDS-PAGE gels, proteins were stained with Coomassie blue, and gels were de-stained with 10% acetic acid. The intensities of protein bands were quantified from scanned gels using ImageJ. The band intensity of Casp6-C163A without a prodomain was plotted against the time and the Casp6-C163A cleavage rates were calculated from the slopes of linear plots. The % activity of Casp6-WT in the presence of inhibitors was calculated relative to DMSO control.
IC50 values were determined against 20 nM Casp6 active sites in fluorescence-based Casp6 activity assay with 10 µM Ac-VEID-AFC and 1 nM-500 µM inhibitor. IC50 was calculated with GraphPad Prism 5 by a nonlinear regression fit for log inhibitor vs relative Casp6 activity (% DMSO control) using a Hill slope of – 1, and top and bottom constraints of 100 and 0, respectively.

[2] = Ac-VEID-AFC hydrolysis kinetics of recombinant Casp6 variants (Michaelis-Menten); assay type: biochemical, human; conditions: for Km / kcat: Ac-VEID-AFC hydrolysis, mean ± SD
Source text: In this study, we investigated how naturally occurring rare missense variants of human CASP6 affect Casp6 activity and structure. […] A34, E35, A109, and T182 are not conserved in 12 human caspases and in Casp6 from different species (Fig. 1a,b). Recombinant Casp6-WT and the four variants were expressed in E. coli, purified, and active site titrated (Fig. S2) for functional analyses. Like Casp6-WT, Casp6 variants, underwent complete self-processing at TETD23, and TEVD193 sites, and slight self-cleavage at the DVVD179 site, generating mainly large subunit with a linker (LS-L), small subunit (SS), and a minor amount of large subunit (LS) (Fig. 1c,d).
as §1

Molecule | % Inhibition with 100 µM compound (fluorescence assay) [1] | fold increase in IC50 (reduction in potency) compared to C13 [1] [fold] | Km [2] [µM] | kcat [2] [s⁻¹] | other results
COC(=O)c1cc(CNC(=O)C2(c3ccc(Cl)cc3)CCC2)cc(NC(=O)c2ccco2)c1 [Compound C13F] | 43.2 ± 10.9^a % | 2 |  |  | IC50 [1]: 27 ± 1.6 µM
COC(=O)c1cc(CNC(=O)c2cc(C)cc(C)c2)cc(NC(=O)c2ccco2)c1 [Compound C13G] | 55.5 ± 8.8^a % | 2 |  |  | IC50 [1]: 21.5 ± 2 µM; potency for Casp6 of in-house synthesised compound compared to commercial compound ([1]; synthesised in the authors' laboratory vs commercial source): lower potency
COC(=O)c1cc(CNC(=O)c2c(-c3ccccc3)noc2C)cc(NC(=O)c2ccco2)c1 [Compound C13D] | 5.5 ± 4.1^a % | 155 |  |  | 
COC(=O)c1cc(CNC(=O)C(C)(C)C)cc(NC(=O)c2ccco2)c1 [Compound C13E] | −8.3 ± 1.7^a % |  |  |  | potency against Casp6 (in words) [1]: low potency
COC(=O)c1cc(CN)cc(NC(=O)c2ccco2)c1 [Compound C13B] | 2.3 ± 3.1^a % |  |  |  | potency against Casp6 (in words) [1]: low potency
B1 |  |  | 37.1 ± 4.9 | 1.71 ± 0.13 | fold reduced catalytic efficiency kcat/KM compared with Casp6-WT [2]: ~ 2 fold
B2 |  |  | 316 ± 162 | 0.05 ± 0.03 | fold higher KM compared to Casp6-WT or Casp6-WT-LS-SS [2]: 10 fold; fold reduction in kcat compared to Casp6-WT [2]: 45 fold
B3 |  |  | 196 ± 84.4 | 2.8 ± 0.8 | fold higher KM compared to Casp6-WT or Casp6-WT-LS-SS [2]: 8 fold
B4 |  |  | 27.7 ± 2.7 | 2.8 ± 0.2 | 
B5 |  |  | 31.2 ± 6.7 | 2.27 ± 0.30 | 
